{
  "source": "the supplement of paper PMC12042874",
  "note": "± gives the uncertainty stated by the source.",
  "data": [
    {"assay": "amyloid nucleation score (Sup35N fusion, yeast selection) (log enrichment); library NNK2; higher = more nucleation; inactive = no reads after selection", "in_short": "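Random libraries were run with three technical output replicates. In each, psi-negative yeast expressing Sup35N fused to peptides of 20 random codons were induced 24 hours with 100 μM copper sulfate and grown 7 days at 30°C on medium lacking adenine and uracil, and input and output plasmid inserts were Illumina-sequenced. The nucleation score is the DiMSum log enrichment of output over input reads, centred on the mode score of non-aggregating sequences, and sequences under 100 input reads were excluded.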", "values": [
      {"substance": "LIFEEQENAGGMASIMSSMV", "amyloid nucleation score": "0.463 ± 0.3"},
      {"substance": "KFGLPREYNSSVPVGPASCL", "amyloid nucleation score": "0.272 ± 0.41"},
      {"substance": "GYSTRIGASFGLGPVGCSAR", "amyloid nucleation score": "3.06 ± 0.087"},
      {"substance": "FMGRMTLGHKNAWVSSDRH", "amyloid nucleation score": "-1.33 ± 0.79"},
      {"substance": "YEFCVAFFDRNNCNREP", "amyloid nucleation score": "-1.6 ± 0.75"},
      {"substance": "RLNCLSTWIVYCGPGYVSSV", "amyloid nucleation score": "-0.571 ± 0.45"},
      {"substance": "QSWSRQSATGPWTLVCQRRP", "amyloid nucleation score": "0.69 ± 0.51"},
      {"substance": "YRCFGERIFLHAHRE", "amyloid nucleation score": "inactive"},
      {"substance": "GIMSSELLYYYVRISYESC", "amyloid nucleation score": "-1.21 ± 0.45"},
      {"substance": "LHWFMVEDH", "amyloid nucleation score": "0.19 ± 0.42"},
      {"substance": "DWWSDDSRLGNLLRFSKRSF", "amyloid nucleation score": "-0.636 ± 0.76"},
      {"substance": "IKQSYTYNPK", "amyloid nucleation score": "1.87 ± 0.12"},
      {"substance": "VCYNT", "amyloid nucleation score": "0.833 ± 0.74"},
      {"substance": "PFLQLCREAIFCLSHDGMLK", "amyloid nucleation score": "-0.575 ± 0.28"},
      {"substance": "HVVLTLGLRISQHRLLRYKK", "amyloid nucleation score": "5.64 ± 0.095"},
      {"substance": "QLNVIDIYTSGWISFP", "amyloid nucleation score": "-1.06 ± 0.26"},
      {"substance": "VHQYDSVSAVHADCMG", "amyloid nucleation score": "-1.27 ± 0.53"},
      {"substance": "KCLSRTQTYACSP", "amyloid nucleation score": "1.78 ± 0.21"},
      {"substance": "KNYGYNIN", "amyloid nucleation score": "1.83 ± 0.17"},
      {"substance": "DQLWRIRYWLLTDVGRNRIF", "amyloid nucleation score": "0.343 ± 0.38"},
      {"substance": "SVAFILVPNEWLVKRAASSG", "amyloid nucleation score": "-0.264 ± 0.45"},
      {"substance": "VFACLNVLSLMNEDFFVMSD", "amyloid nucleation score": "-0.708 ± 0.54"},
      {"substance": "GGTIKALYNSSGTRRMSKLR", "amyloid nucleation score": "-0.224 ± 0.2"},
      {"substance": "NMFRIVASTY", "amyloid nucleation score": "0.598 ± 0.47"},
      {"substance": "CHISLTKWCRFRVV", "amyloid nucleation score": "-0.014 ± 0.76"},
      {"substance": "NSWFLYRCKFVLRHSYVN", "amyloid nucleation score": "inactive"},
      {"substance": "VGHQVDCHTSVRYYILYAFF", "amyloid nucleation score": "7.839 ± 0.063"},
      {"substance": "QIIRPCVRRDKTGFIALVMG", "amyloid nucleation score": "1.27 ± 0.49"},
      {"substance": "KFMVLITVRMIVIRPVSVRS", "amyloid nucleation score": "0.647 ± 0.58"},
      {"substance": "CRVRYTGGY", "amyloid nucleation score": "0.523 ± 0.35"},
      {"substance": "SEVCNCVGLGSGCDVYGA", "amyloid nucleation score": "3.17 ± 0.094"},
      {"substance": "KGMNCVCACAINRPYSIVLQ", "amyloid nucleation score": "1.41 ± 0.15"},
      {"substance": "RVNSIAFI", "amyloid nucleation score": "-0.701 ± 0.56"},
      {"substance": "VSKSFWGMGWSLRYSGFSRV", "amyloid nucleation score": "-0.262 ± 0.41"},
      {"substance": "IRWGNRLTLERGFFKPFY", "amyloid nucleation score": "inactive"},
      {"substance": "PTRVKIFFQRMCGVVAVGWS", "amyloid nucleation score": "1.42 ± 0.39"},
      {"substance": "SNDDIEIAKRSHMY", "amyloid nucleation score": "0.196 ± 0.54"},
      {"substance": "NNMPFCNYEAFNFYNGMSAF", "amyloid nucleation score": "-1.55 ± 1.1"},
      {"substance": "CSKDMSQKLVYRLWSIIVMA", "amyloid nucleation score": "-0.542 ± 0.33"},
      {"substance": "FMVILYLDSLSLPWNWIVFG", "amyloid nucleation score": "0.098 ± 0.54"},
      {"substance": "WMLIWYGPRLVYIPDLITLP", "amyloid nucleation score": "inactive"},
      {"substance": "HVTMCKYYFWYMEIVVVKP", "amyloid nucleation score": "-0.456 ± 0.55"},
      {"substance": "ILVEGET", "amyloid nucleation score": "-0.263 ± 0.33"},
      {"substance": "TEDDCGK", "amyloid nucleation score": "0.975 ± 0.17"},
      {"substance": "GSKSCRDYNIKFIYDRYFMG", "amyloid nucleation score": "inactive"},
      {"substance": "PHCRSLETH", "amyloid nucleation score": "-0.083 ± 0.33"},
      {"substance": "WWRNFD", "amyloid nucleation score": "-0.526 ± 0.76"},
      {"substance": "VCSMEGYEAVYSRRRELLWS", "amyloid nucleation score": "0.08 ± 0.36"},
      {"substance": "ELMVTVVDHCTFVVTRLCGE", "amyloid nucleation score": "7.184 ± 0.064"},
      {"substance": "GAVNFYHT", "amyloid nucleation score": "4.06 ± 0.044"},
      {"substance": "SAPECNLAARVFYLLSPMGM", "amyloid nucleation score": "0.13 ± 1.1"},
      {"substance": "YRFRAIVNIYRCDVGFF", "amyloid nucleation score": "6.36 ± 0.075"},
      {"substance": "VCVQDRLRC", "amyloid nucleation score": "0.518 ± 0.5"},
      {"substance": "QAISVEVVGYRSNLESFTIW", "amyloid nucleation score": "1.71 ± 0.11"},
      {"substance": "EGDMLILEF", "amyloid nucleation score": "-0.474 ± 1"},
      {"substance": "GFHSCG", "amyloid nucleation score": "4.85 ± 0.067"},
      {"substance": "SMYSSASMQWSDRFNILYEV", "amyloid nucleation score": "-0.291 ± 0.31"},
      {"substance": "RVVCLLKGRWFALVLPDYCR", "amyloid nucleation score": "0.479 ± 0.8"},
      {"substance": "FNALTVDQTVHSYGVYADLP", "amyloid nucleation score": "0.191 ± 0.21"},
      {"substance": "TCRQSEATLLVLEYVRESCS", "amyloid nucleation score": "0.809 ± 0.3"},
      {"substance": "KIWMSLHLRELRLC", "amyloid nucleation score": "0.569 ± 0.12"},
      {"substance": "YGHLRVWKIPS", "amyloid nucleation score": "0.655 ± 0.65"},
      {"substance": "FCMADVYSGTLRNNYHTSEV", "amyloid nucleation score": "-0.986 ± 0.31"},
      {"substance": "PVCFGIEVYDVRFVASNVPG", "amyloid nucleation score": "0.313 ± 0.48"},
      {"substance": "SNGKYG", "amyloid nucleation score": "1.32 ± 0.26"},
      {"substance": "SLVTISFLGLFGSSSALVVA", "amyloid nucleation score": "-0.114 ± 1.1"},
      {"substance": "TGKFL", "amyloid nucleation score": "inactive"},
      {"substance": "WTSLSNVFRLTNMYTRVSKW", "amyloid nucleation score": "-0.55 ± 0.76"},
      {"substance": "PCPSISGLFASAYPITRLSL", "amyloid nucleation score": "-0.347 ± 0.24"},
      {"substance": "TGLTH", "amyloid nucleation score": "-0.737 ± 0.54"},
      {"substance": "NTANKFSLFKTGMVWVSFFT", "amyloid nucleation score": "2.88 ± 0.099"},
      {"substance": "QNEVSLEVVFVKEGVGFDRL", "amyloid nucleation score": "-0.665 ± 0.76"},
      {"substance": "LLKVF", "amyloid nucleation score": "-1.01 ± 1.1"},
      {"substance": "SWSRYGCGVYSDVGVTLLQF", "amyloid nucleation score": "0.201 ± 0.63"},
      {"substance": "CRSFAFTLSNMYLMM", "amyloid nucleation score": "6.52 ± 0.082"},
      {"substance": "LRASWLYYFKSKVSFGCKGD", "amyloid nucleation score": "-0.405 ± 0.41"},
      {"substance": "HKRHTLK", "amyloid nucleation score": "-0.809 ± 1.1"},
      {"substance": "HCGMAYFH", "amyloid nucleation score": "-0.111 ± 0.32"},
      {"substance": "LNNRLVFSKVHGCRICNRRS", "amyloid nucleation score": "inactive"},
      {"substance": "YPLCARILLNKDLWDGYLNS", "amyloid nucleation score": "inactive"},
      {"substance": "RFFCYKSYMLLECLRIVSVC", "amyloid nucleation score": "-0.853 ± 0.78"},
      {"substance": "CHNNFNCPNVLVFLARELSI", "amyloid nucleation score": "4.99 ± 0.079"},
      {"substance": "HIGSVVVELLSVRLLWHCMH", "amyloid nucleation score": "5.94 ± 0.088"},
      {"substance": "LDIPNGNYVLMSYR", "amyloid nucleation score": "0.32 ± 0.44"},
      {"substance": "TSRKTEFQPFAGSICLYMGI", "amyloid nucleation score": "0.18 ± 0.63"},
      {"substance": "YLLYGWYTMLALHLALREHI", "amyloid nucleation score": "-0.098 ± 0.79"}
    ]}
  ]
}
